Measurements published in PMC3282181.
Substitutions are numbered along the chain they refer to. Like-named read-outs stand apart in the source and are kept apart here.

Key:
[1] = target: T1, TIA-Mut3 (Homo sapiens, UniProt P31483-2 1-274, Y206A;F242A); assay: ITC
T1 sequence: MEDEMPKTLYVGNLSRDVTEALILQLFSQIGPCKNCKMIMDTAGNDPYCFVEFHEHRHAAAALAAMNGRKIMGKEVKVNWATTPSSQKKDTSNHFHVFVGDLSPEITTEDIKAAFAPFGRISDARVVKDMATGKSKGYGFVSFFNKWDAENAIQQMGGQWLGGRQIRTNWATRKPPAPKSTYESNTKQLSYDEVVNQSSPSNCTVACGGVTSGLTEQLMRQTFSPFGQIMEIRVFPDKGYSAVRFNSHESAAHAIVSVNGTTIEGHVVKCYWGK

[2] = target: T2, wtTIA-RRM123 (Homo sapiens, UniProt P31483-2 1-274); assay: ITC
T2 sequence: T1 sequence with A206Y, A242F

[3] = target: T2, wtTIA-RRM123; assay: ITC; remark: listed apart in the source
[4] = target: T2, wtTIA-RRM123; assay: ITC; remark: listed apart in the source
[5] = target: T1, TIA-Mut3; assay: ITC; remark: listed apart in the source
[6] = target: T2, wtTIA-RRM123; assay: EMSA

Binder: UUUUUUUUUUUUUUUUUUUU (ssRNA) [U20 RNA]
- Kd [1]: 1270 ± 60 nM
- Kd [2]: 620 ± 70 nM
- Kd [3]: 0.5 ± 0.1 nM
- Kd [4]: 240 ± 10 nM
- Kd [5]: 14.4 ± 6.1 nM

Binder: UUAUUUAUUUA (ssRNA) [tnf-a ARE RNA (11 nt)]
- binding result [6]: binds
